Substitutions are numbered along the chain they refer to. In names and notes the source's numbering stands.
B1: dBBDu183H G65D/dBBDu072L (antibody, name in Kabat numbering, V domains shown)
VH: QVQLVESGGGLVQPGRSLRLSCAASGFTFSNAWMHWVRQAPGKGLEWVAQIKDKGNAYAAYYAPSVKDRFTISRDDSKNSIYLQMNSLKTEDTAVYYCHYVHYASASTVLPAFGVDAWGQGTTVTVSS
VL: DIVMTQSPLSLPVTPGEPASISCQASQELVHMNRNTYLHWYQQKPGQAPRLLIYKVSNRFPGVPDRFSGSGSGTDFTLKISRVEAEDVGVYYCAQGTSVPFTFGQGTKLEIK
B2: dBBDu183H H93T/dBBDu072L (antibody, name in Kabat numbering, V domains shown)
VH: B1 VH with D68G, H99T
VL: B1 VL
B3: dBBDu183H H93D/dBBDu072L (antibody, name in Kabat numbering, V domains shown)
VH: B1 VH with D68G, H99D
VL: B1 VL
B4: dBBDu183H H93W/dBBDu072L (antibody, name in Kabat numbering, V domains shown)
VH: B1 VH with D68G, H99W
VL: B1 VL
B5: dBBDu183H G65N/dBBDu072L (antibody, name in Kabat numbering, V domains shown)
VH: B1 VH with D68N
VL: B1 VL
B6: dBBDu183H G65R/dBBDu072L (antibody, name in Kabat numbering, V domains shown)
VH: B1 VH with D68R
VL: B1 VL
B7: dBBDu183H G65S/dBBDu072L (antibody, name in Kabat numbering, V domains shown)
VH: B1 VH with D68S
VL: B1 VL
B8: dBBDu183H G100hF/dBBDu072L (antibody, name in Kabat numbering, V domains shown)
VH: B1 VH with D68G, G114F
VL: B1 VL
B9: dBBDu183H H96E/dBBDu072L (antibody, name in Kabat numbering, V domains shown)
VH: B1 VH with D68G, H102E
VL: B1 VL
B10: dBBDu183H G100hK/dBBDu072L (antibody, name in Kabat numbering, V domains shown)
VH: B1 VH with D68G, G114K
VL: B1 VL
B11: dBBDu183H H96N/dBBDu072L (antibody, name in Kabat numbering, V domains shown)
VH: B1 VH with D68G, H102N
VL: B1 VL
B12: dBBDu183H H93Y/dBBDu072L (antibody, name in Kabat numbering, V domains shown)
VH: B1 VH with D68G, H99Y
VL: B1 VL
B13: dBBDu183H H93S/dBBDu072L (antibody, name in Kabat numbering, V domains shown)
VH: B1 VH with D68G, H99S
VL: B1 VL
B14: dBBDu183H G65K/dBBDu072L (antibody, name in Kabat numbering, V domains shown)
VH: B1 VH with D68K
VL: B1 VL
B15: dBBDu183H H93K/dBBDu072L (antibody, name in Kabat numbering, V domains shown)
VH: B1 VH with D68G, H99K
VL: B1 VL
B16: dBBDu183H G100hE/dBBDu072L (antibody, name in Kabat numbering, V domains shown)
VH: B1 VH with D68G, G114E
VL: B1 VL
B17: dBBDu183H G65V/dBBDu072L (antibody, name in Kabat numbering, V domains shown)
VH: B1 VH with D68V
VL: B1 VL
B18: dBBDu183H G65Y/dBBDu072L (antibody, name in Kabat numbering, V domains shown)
VH: B1 VH with D68Y
VL: B1 VL
B19: dBBDu183H G100hW/dBBDu072L (antibody, name in Kabat numbering, V domains shown)
VH: B1 VH with D68G, G114W
VL: B1 VL
B20: dBBDu183H H93G/dBBDu072L (antibody, name in Kabat numbering, V domains shown)
VH: B1 VH with D68G, H99G
VL: B1 VL
B21: dBBDu183H G100hS/dBBDu072L (antibody, name in Kabat numbering, V domains shown)
VH: B1 VH with D68G, G114S
VL: B1 VL
B22: dBBDu183H H96G/dBBDu072L (antibody, name in Kabat numbering, V domains shown)
VH: B1 VH with D68G, H102G
VL: B1 VL
B23: dBBDu183H H93R/dBBDu072L (antibody, name in Kabat numbering, V domains shown)
VH: B1 VH with D68G, H99R
VL: B1 VL
B24: dBBDu183H G100hH/dBBDu072L (antibody, name in Kabat numbering, V domains shown)
VH: B1 VH with D68G, G114H
VL: B1 VL
B25: dBBDu183H G65W/dBBDu072L (antibody, name in Kabat numbering, V domains shown)
VH: B1 VH with D68W
VL: B1 VL
B26: dBBDu183H H96F/dBBDu072L (antibody, name in Kabat numbering, V domains shown)
VH: B1 VH with D68G, H102F
VL: B1 VL
B27: dBBDu183H G65F/dBBDu072L (antibody, name in Kabat numbering, V domains shown)
VH: B1 VH with D68F
VL: B1 VL
B28: dBBDu183H G65E/dBBDu072L (antibody, name in Kabat numbering, V domains shown)
VH: B1 VH with D68E
VL: B1 VL
B29: dBBDu183H H93E/dBBDu072L (antibody, name in Kabat numbering, V domains shown)
VH: B1 VH with D68G, H99E
VL: B1 VL
B30: dBBDu183H G100hT/dBBDu072L (antibody, name in Kabat numbering, V domains shown)
VH: B1 VH with D68G, G114T
VL: B1 VL
B31: dBBDu183H G65T/dBBDu072L (antibody, name in Kabat numbering, V domains shown)
VH: B1 VH with D68T
VL: B1 VL
B32: dBBDu183H G65Q/dBBDu072L (antibody, name in Kabat numbering, V domains shown)
VH: B1 VH with D68Q
VL: B1 VL
B33: dBBDu183H G100hV/dBBDu072L (antibody, name in Kabat numbering, V domains shown)
VH: B1 VH with D68G, G114V
VL: B1 VL
B34: dBBDu183H G100hD/dBBDu072L (antibody, name in Kabat numbering, V domains shown)
VH: B1 VH with D68G, G114D
VL: B1 VL
B35: dBBDu183H H93V/dBBDu072L (antibody, name in Kabat numbering, V domains shown)
VH: B1 VH with D68G, H99V
VL: B1 VL
B36: dBBDu183H H93N/dBBDu072L (antibody, name in Kabat numbering, V domains shown)
VH: B1 VH with D68G, H99N
VL: B1 VL
B37: dBBDu183H G100hN/dBBDu072L (antibody, name in Kabat numbering, V domains shown)
VH: B1 VH with D68G, G114N
VL: B1 VL
B38: dBBDu183H G65H/dBBDu072L (antibody, name in Kabat numbering, V domains shown)
VH: B1 VH with D68H
VL: B1 VL
B39: dBBDu183H G100hR/dBBDu072L (antibody, name in Kabat numbering, V domains shown)
VH: B1 VH with D68G, G114R
VL: B1 VL
B40: dBBDu183H H96K/dBBDu072L (antibody, name in Kabat numbering, V domains shown)
VH: B1 VH with D68G, H102K
VL: B1 VL
B41: dBBDu183H G100hQ/dBBDu072L (antibody, name in Kabat numbering, V domains shown)
VH: B1 VH with D68G, G114Q
VL: B1 VL
B42: dBBDu183H H96D/dBBDu072L (antibody, name in Kabat numbering, V domains shown)
VH: B1 VH with D68G, H102D
VL: B1 VL
B43: dBBDu183H G100hY/dBBDu072L (antibody, name in Kabat numbering, V domains shown)
VH: B1 VH with D68G, G114Y
VL: B1 VL
B44: dBBDu183H H93Q/dBBDu072L (antibody, name in Kabat numbering, V domains shown)
VH: B1 VH with D68G, H99Q
VL: B1 VL
B45: dBBDu183H H93F/dBBDu072L (antibody, name in Kabat numbering, V domains shown)
VH: B1 VH with D68G, H99F
VL: B1 VL

Biological target: T1, Human CD3eg linker (human)
T1 construct: single-chain construct; also called recombinant human CD3
T1 chain: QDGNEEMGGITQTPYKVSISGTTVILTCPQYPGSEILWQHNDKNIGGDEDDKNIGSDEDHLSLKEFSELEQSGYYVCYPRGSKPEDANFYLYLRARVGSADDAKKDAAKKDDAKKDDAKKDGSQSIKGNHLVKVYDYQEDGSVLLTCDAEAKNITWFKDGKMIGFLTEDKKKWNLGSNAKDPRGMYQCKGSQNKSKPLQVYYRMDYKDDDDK
Test: SPR, vs unmutated H183/L072

| Binder | fold change of affinity [fold] |
| --- | --- |
| B1 | 1 |
| B2 | 0 |
| B3 | 0 |
| B4 | 0 |
| B5 | 0.9 |
| B6 | 1 |
| B7 | 1 |
| B8 | 0.4 |
| B9 | 0 |
| B10 | 0.3 |
| B11 | 0 |
| B12 | 0 |
| B13 | 0 |
| B14 | 1.1 |
| B15 | 0.2 |
| B16 | 0.5 |
| B17 | 1.2 |
| B18 | 1 |
| B19 | 0 |
| B20 | 0 |
| B21 | 1.1 |
| B22 | 0.2 |
| B23 | 2.4 |

| Binder | fold change of affinity [fold] |
| --- | --- |
| B24 | 1.5 |
| B25 | 1 |
| B26 | 0 |
| B27 | 0.9 |
| B28 | 1 |
| B29 | 0 |
| B30 | 2.3 |
| B31 | 1 |
| B32 | 1 |
| B33 | 3.4 |
| B34 | 0.5 |
| B35 | 0 |
| B36 | 0 |
| B37 | 0.8 |
| B38 | 0.9 |
| B39 | 0.4 |
| B40 | 0.6 |
| B41 | 0.4 |
| B42 | 0 |
| B43 | 0 |
| B44 | 0 |
| B45 | 0 |
